Experimental data reported in paper PMC9858354 (2023).

Target: T1, human C-C motif chemokine receptor-like 2 (CCRL2) isoform b, on HEK-huCCRL2 cells (human, UniProt O00421 1-344)
T1 chain: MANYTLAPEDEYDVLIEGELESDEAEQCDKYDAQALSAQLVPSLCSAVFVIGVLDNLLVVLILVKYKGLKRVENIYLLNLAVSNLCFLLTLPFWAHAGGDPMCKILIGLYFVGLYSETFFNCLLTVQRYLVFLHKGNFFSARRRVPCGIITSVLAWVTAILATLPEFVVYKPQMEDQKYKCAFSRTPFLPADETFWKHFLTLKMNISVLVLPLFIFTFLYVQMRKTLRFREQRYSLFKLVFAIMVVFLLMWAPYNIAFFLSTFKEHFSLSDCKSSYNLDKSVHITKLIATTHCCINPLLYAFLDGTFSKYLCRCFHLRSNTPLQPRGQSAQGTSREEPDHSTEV
Experiment: SPR

B1: recombinant active human chemerin (residues 21-157), unlabeled (ligand)
chain: ELTEAQRRGLQVALEEFHKHPPVQWAFQETSVESAVDTPFPAGIFVRLEFKLQQTSCRKRDWKKPECKVRPNGRKRKCLACIKLGSEDKVLGRLVHCPIETQVLREAEEHQETQCLRVQRAGEDPHSFYFPGQFAFS
Kd: 7.48 nM
